The source of these data is article PMC5409509, “The mismatch repair and meiotic recombination endonuclease Mlh1-Mlh3 is activated by polymer formation and can cleave DNA substrates in trans”.

Series [1] has as its target T1, Mlh1-Mlh3 (Saccharomyces cerevisiae, UniProt P38920;Q12083 1-769;1-715).
T1 sequence 1: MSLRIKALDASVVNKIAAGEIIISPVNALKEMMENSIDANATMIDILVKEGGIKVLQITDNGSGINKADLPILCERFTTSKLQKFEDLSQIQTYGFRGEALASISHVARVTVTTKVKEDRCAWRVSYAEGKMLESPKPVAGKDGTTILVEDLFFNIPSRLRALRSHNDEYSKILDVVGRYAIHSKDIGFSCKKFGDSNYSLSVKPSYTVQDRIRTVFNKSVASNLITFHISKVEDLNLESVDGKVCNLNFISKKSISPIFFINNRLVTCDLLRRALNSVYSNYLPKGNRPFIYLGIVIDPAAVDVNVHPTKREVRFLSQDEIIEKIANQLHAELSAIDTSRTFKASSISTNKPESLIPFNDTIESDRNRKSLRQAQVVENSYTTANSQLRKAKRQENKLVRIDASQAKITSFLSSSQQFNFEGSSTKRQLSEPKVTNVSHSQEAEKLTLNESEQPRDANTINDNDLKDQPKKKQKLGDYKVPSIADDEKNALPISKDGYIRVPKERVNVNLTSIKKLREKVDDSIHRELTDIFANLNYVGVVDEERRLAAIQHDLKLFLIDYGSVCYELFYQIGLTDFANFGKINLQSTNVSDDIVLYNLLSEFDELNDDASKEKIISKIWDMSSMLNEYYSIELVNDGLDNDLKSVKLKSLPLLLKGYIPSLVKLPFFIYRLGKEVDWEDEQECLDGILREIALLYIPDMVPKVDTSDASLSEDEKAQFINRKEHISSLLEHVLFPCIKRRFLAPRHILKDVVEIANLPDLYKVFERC
T1 sequence 2: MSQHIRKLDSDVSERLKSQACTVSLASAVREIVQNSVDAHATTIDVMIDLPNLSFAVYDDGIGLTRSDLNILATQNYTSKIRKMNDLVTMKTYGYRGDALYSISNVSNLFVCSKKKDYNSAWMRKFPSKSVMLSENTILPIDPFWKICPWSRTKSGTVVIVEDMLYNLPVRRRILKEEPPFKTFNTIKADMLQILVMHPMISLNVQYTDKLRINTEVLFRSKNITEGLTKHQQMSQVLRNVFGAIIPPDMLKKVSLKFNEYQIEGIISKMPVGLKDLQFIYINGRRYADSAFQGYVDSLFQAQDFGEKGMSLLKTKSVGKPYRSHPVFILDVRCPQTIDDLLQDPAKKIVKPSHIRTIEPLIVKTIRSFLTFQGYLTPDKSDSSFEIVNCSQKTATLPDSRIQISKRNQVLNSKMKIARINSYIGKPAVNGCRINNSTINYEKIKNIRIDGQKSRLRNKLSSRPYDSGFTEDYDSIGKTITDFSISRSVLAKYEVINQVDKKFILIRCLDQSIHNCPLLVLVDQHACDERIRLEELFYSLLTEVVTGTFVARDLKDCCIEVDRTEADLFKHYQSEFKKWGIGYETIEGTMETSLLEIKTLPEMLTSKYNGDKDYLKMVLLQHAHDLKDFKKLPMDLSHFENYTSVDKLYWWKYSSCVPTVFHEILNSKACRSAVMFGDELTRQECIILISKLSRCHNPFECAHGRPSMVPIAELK
Briefly: competition; very strong competitor of plasmid nicking, 0-2000 nM, 1 mM Mg2+; Filter binding: 20 mM Tris-HCl pH 7.5, 0.01 mM EDTA, 2 mM MgCl2, 40 ug/mL BSA, 0.1 mM DTT, 15 uM nucleotide DNA, 10 min at 30 C (20 or 150 mM KCl in Fig 4B; KCl not stated for Fig 4A). The conditions noted are these: protein: recombinant; copies: 1;1; 4-way junction with 26 bp mobile homologous core.

Series [2] addresses T1, Mlh1-Mlh3. Briefly: competition; very strong competitor of plasmid nicking, 0-2000 nM oligo, 1 mM Mg2+; Filter binding: 20 mM Tris-HCl pH 7.5, 0.01 mM EDTA, 2 mM MgCl2, 40 ug/mL BSA, 0.1 mM DTT, 15 uM nucleotide DNA, 10 min at 30 C (20 or 150 mM KCl in Fig 4B; KCl not stated for Fig 4A). The conditions noted are these: protein: recombinant; copies: 1;1; blunt.

B1: Holliday junction X26 (structured_DNA)
DNA 1: GCGCTACCAGTGATCACCAATGGATTGCTAGGACATCTTTGCCCACCTGCAGGTTCACCC
DNA 2: GGGTGAACCTGCAGGTGGGCAAAGATGTCCTAGCAATCCATTGTCTATGACGTCAAGCTC
DNA 3: GAGCTTGACGTCATAGACAATGGATTGCTAGGACATCTTTGCCGTCTTGTCAATATCGGC
DNA 4: GCCGATATTGACAAGACGGCAAAGATGTCCTAGCAATCCATTGGTGATCACTGGTAGCGC
For B1, the binding result in the series with Mlh1-Mlh3 [1] is “binds”.

B2: +8 loop oligonucleotide (AO3142/AO3143) (dsDNA)
DNA 1: GGGTCAACGTGGGCAAAGATGTCCTAGCAAGTCAGAATTCGGTAGCGTG
DNA 2: CACGCTACCGAATTCTGACTTGCTAGGTGTGTGTGACATCTTTGCCCACGTTGACCC
Take B2: in the series with Mlh1-Mlh3 [2], the binding result was “binds”.
